The results in this text go back to patent US20220193237A1 (Bristol-Myers Squibb, published 2022).

For test [1], the target named is T1, human CTLA-4 on 58 α-β-CTLA-4/CD3 ζ cells (human; mouse (mCD3ζ)). In words: cell-based or functional assay.
The target in test [2] is T1, human CTLA-4 on 58 α-β-CTLA-4/CD3 ζ …. Kind of test: flow cytometry, non-fucosylated IgG1 on 58αβ-CTLA4/mCD3ζ cells, pH 6.7. The protocol:
(§1) Antibodies were titrated from 100 μg/mL at a 1:4 dilution across 12 points in pH-specific buffers and incubated for 30-60 minutes. Buffers contained HBSS, 2% FBS^HI, 0.02% sodium azide, 2 mM EDTA, and sodium phosphate buffer (pH 5.4). Sodium phosphate buffer was added until desired pH was reached (7.2, 6.7, 6.2). Approximately 3e5 cells/well were tested for each cell line. […] Detection was done with a monovalent anti-hKappa secondary nanobody conjugated to Alexa647 and used at a dilution of 1:2000. Cells were fixed with BD Fix Solution I for 30 minutes prior to resuspension in pH-specific buffers and reading on the cytometer (BD Fortessa).

Test [3] shares this target. In words: cell-based or functional assay. The source holds these as a separate data set.
For test [4] the target is unchanged. Kind of test: flow cytometry, non-fucosylated IgG1 on 58αβ-CTLA4/mCD3ζ cells, pH 7.2. The procedure: as §1
(In general: In flow cytometry, cells or beads pass a laser one at a time.)

For test [5] the target is unchanged. Kind of test: flow cytometry, non-fucosylated IgG1 on 58αβ-CTLA4/mCD3ζ cells, pH 6.2. The protocol: as §1
Test [6] concerns the target T2, monomeric human CTLA-4 (human, UniProt P16410 36-161, limits assumed).
T2 construct: Soluble monomeric analyte in SPR; also called huCTLA-4
T2 sequence: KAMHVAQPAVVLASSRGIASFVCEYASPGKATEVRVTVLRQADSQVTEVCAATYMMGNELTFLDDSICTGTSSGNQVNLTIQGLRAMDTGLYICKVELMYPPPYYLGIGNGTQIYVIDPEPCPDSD
Kind of test: SPR, captured Fab, second experiment of Table 3. The protocol:
(§2) See Example 3. Antibodies were tested as monovalent Fab fragments to simplify analysis.
(§3) Monomeric human CTLA-4 was flowed as analyte with up to 2 μM top concentration. Between cycles, the capture surface was regenerated with 75 mM phosphoric acid. Experiments were run on a BIACORE® T200 instrument at 37° C. Running buffers were HEPES buffered saline for pH 7.4 experiments and Bis-Tris buffered saline for lower pH experiments. […] Double referenced sensorgrams were fitted to a 1:1 Langmuir binding model with mass transport to determine equilibrium dissociation constants (KD), as well as association (kₐ) and dissociation (kd) rate constants where appropriate.

The target in test [7] is T2, monomeric human CTLA-4. Kind of test: SPR, captured Fab, pH 6.0 vs 7.4, second experiment. The procedure:
as §2, §3
A general note: In SPR one partner is held on a chip, and binding of the other changes the refractive index at the surface.

The target in test [8] is T2, monomeric human CTLA-4. Kind of test: SPR, captured Fab, pH 6.0, second experiment. The procedure: as §2, §3
The target in test [9] is T2, monomeric human CTLA-4. Kind of test: SPR, captured Fab, pH 7.4, second experiment. The procedure:
as §2, §3

Where a chain is given by its changes, count along the chain named.

B1: ipi.105, non-fucosylated IgG1 (antibody, V domains shown)
VH: QVQLVESGGGVVQPGRSLRLSCAASGFTFSHYTMHWVRQAPGKGLEWVTFISYDGHNKYYADSVKGRFTISRDNSKNTLYLQMNSLRAEDTAIYYCARTGWLGPFDYWGQGTLVTVSS
VL: EIVLTQSPGTLSLSPGERATLSCRASQEVGESELAWYQQKPGQAPRLLIYGAFSRATGIPDRFSGSGSGTDFTLTISRLEPEDFAVYYCQQYGSSPWTFGQGTKVEIKR
modifications: non-fucosylated N-linked glycan
notes: Non-fucosylated full-length human IgG1; also called Ipi.105 IgG1-NF
With B1, the “IC50 (read off the curve), mIL-2 secretion, 58αβ-hCTLA/mCD3ζ:rhB7-1 blocking assay, 18 h, pH 7.0” value in [1] is about 4 nM. Further, the entries for the “Cmax (MFI)” value in test [2], in test [4] and in test [5] were 110000 MFI, 107000 MFI and 107000 MFI, respectively. In addition, the EC50 (in general, the concentration needed to bring the measured effect to its halfway point) stood at 3.45 nM in test [2], 3.94 nM in test [4] and 2.6 nM in test [5]. In addition, the “IC50 (read off the curve), mIL-2 secretion, 58αβ-hCTLA/mCD3ζ:rhB7-1 blocking assay, 18 h, pH 6.8” value in test [3] is about 2 nM.

B2: ipi.24 Fab (Fab, V domains shown)
VH: B1 VH with H31S, H56N
VL: not shown
notes: Tested as monovalent Fab
B2: the “ratio of KD (7.4/6.0) normalized to the ratio of ipilimumab” value (shortened to “ratio of KD (7.4/6.0) normalized”) with monomeric human CTLA-4 [6] worked out at 4.1. Moreover, in the test with monomeric human CTLA-4 [7], the “KD 7.4/6 (APBP)” value was found to be 3.3, the “ka 6/7.4” value was 2 and the “kd 7.4/6” value was found to be 1.7. In addition, in the test with monomeric human CTLA-4 [8], the Kd (as a rule, the constant that tells how readily two partners part at equilibrium) was found to be 7.2 nM; the koff (in general, a measure of how fast the partners let go of each other) was determined as 0.006 s⁻¹; the kon (as a rule, the second-order rate constant of association) was 830000 M⁻¹ s⁻¹. In addition, in the test with monomeric human CTLA-4 [9], binding was put at a Kd of 24 nM, the koff was 0.0099 s⁻¹ and the kon was 420000 M⁻¹ s⁻¹.

B3: ipi.23 Fab (Fab, V domains shown)
VH: B1 VH with H31S, H56N
VL: not shown
notes: Tested as monovalent Fab
As to B3, the “ratio of KD (7.4/6.0) normalized” value in the test with monomeric human CTLA-4 [6] worked out at 5.1. In addition, in the test with monomeric human CTLA-4 [7], the “KD 7.4/6 (APBP)” value was determined as 4.1, the “ka 6/7.4” value turned out to be 2 and the “kd 7.4/6” value turned out to be 2.1. In the test with monomeric human CTLA-4 [8], the Kd is 6.5 nM, the koff was 0.0062 s⁻¹ and the kon came out at 960000 M⁻¹ s⁻¹. In the test with monomeric human CTLA-4 [9], this molecule returned a Kd of 27 nM, a koff of 0.013 s⁻¹ and a kon of 490000 M⁻¹ s⁻¹.

B4: ipi.106, non-fucosylated IgG1 (antibody, V domains shown)
VH: B1 VH with T99H
VL: B1 VL
modifications: non-fucosylated N-linked glycan
notes: Non-fucosylated full-length human IgG1; also called Ipi.106 IgG1-NF
Regarding B4, the figures for the “Cmax (MFI)” value in test [2], in [4] and in test [5] were 80200 MFI, 62000 MFI and 88000 MFI, respectively. Moreover, the EC50 turned out to be 4.37 nM in test [2], 11.5 nM in test [4] and 3.15 nM in test [5].

B5: ipi.26 Fab (Fab, V domains shown)
VH: B1 VH with H31S, H56N
VL: not shown
notes: Tested as monovalent Fab
For B5, the “ratio of KD (7.4/6.0) normalized” value with monomeric human CTLA-4 [6] was 4.3. In the test with monomeric human CTLA-4 [7], the “KD 7.4/6 (APBP)” value amounted to 3.4, the “ka 6/7.4” value was found to be 2 and the “kd 7.4/6” value came out at 1.7. In the test with monomeric human CTLA-4 [8], this molecule showed a Kd of 8.9 nM, a koff of 0.007 s⁻¹ and a kon of 790000 M⁻¹ s⁻¹. For the same molecule, in the test with monomeric human CTLA-4 [9], binding was characterised by a dissociation constant (Kd) of 30 nM, the koff stood at 0.012 s⁻¹ and the kon is 410000 M⁻¹ s⁻¹.
